We go through seven sequences from a protein production outcome set (Wang et al. 2014).

The nature of the data set: label from the status in PepcDB records.
Regarding “MHIKYLWMCDCGGKKSQGVKWLPFILILVIAAGLWQLTPPSGLSAPAWHSAIIFVATIASIVAKVLPIGAVGIIGITVFALAYAAGDKTASGAITTALSELNSSLIWLIVVAFMIARGFIKTGLGRRIALQMIRLLGKRTLGLAYGLAFADLILSPAMPSNTARCGGVIYPIADSLARSFDSHPEDESRSKIGTFLITCIGNVNDVTAALFMTGYTGNLLAVKLAANAGVTLSWGSWFIAALLPCLVSFLIVPLLVYWLTRPEIKHTPDAPDLARKELAQMGSMTRGEWLMLATVGVLLVLWIFGSSLGVDATTASFVGLSILLLSGVLTWEDVKSEKGAWDTLIWFAALLMMANQLKKLGFTSWFGNLIGDSIGSTMHGTSWIIILLLLNAAYFYTHYFFASGNAQIAALYAVFLGVGLHLNIPAAPMALMLAFTSSLYCSLTQYTHARGPILFGAGYVPTGVWWRTGFIISLFNQAVFLTVGLAWWKVLGLY”, the protein production entry is on record as “failed”. Take “MHISIKTLEGKRIKLEVEDSSNTIDLKIHGEPTRELVVDLSPTPDTGAIMMIFIKTLTGRTNTYEVKGSDTIRELKAKHEEKEGIPVEQQRLIFQGRISIKTVKGKSINLEVADSSDTIDLKINGEPTRQLVLRLGPAVLMRIFVSTIKEKTFILEVKGSDTIKKLKSMIHDQGGPPVDQQDLNHLGTKLKNNATISDYNIKPDANLVIMQNGCIC”: the protein production entry is recorded as “failed”. “MHKIEQLLQTLAPKGVEFRKLGDIILSLKTGLNPRKFFKLNTPNANNYYVTVRELEEYTIKFTHQTDRIDDNALSLCLKRSNLEKDDIFYSLELEQ”: the protein production result was “failed”. Regarding “MHLRLRTKNGLITITVSQQCTIRELSEEIERKTGIEVAKQKILYGFPQRELRADADKPVESVLQSGDSLTVDKLSAETEQERTVESSPASTENAYVRRKVPDDNSCLFHAICYVFRSGSVAQLRHIISETVRLNPDLYTEAFLGKSNHEYSRWILLPETWGGAIELSILSKYFQTEISVFDIQTLRLDRYGEAENYEERVFLLYDGIHYDPIARAFLGASREYDVTVFKIWDNEALVGAKSVAEEANKNRQYTDLASFTLMCRNCGAKLKGETSAVEHAKQTGHTNFTEA”, the protein production entry is on record as “failed”. In the case of “MHLSLALLVLLFSLILSNVINRIFPRLPLPLIQIIFGVGIGFLLKGEVFELETELFLAFIIAPLLFREGEESDITSILRNWKLILFLIFPVIFVSTLGIGYLAKAVLPASVPLSACLALGAALGPTDFVAYSAISKRFSFPKWISYILQGEGLLNDASGLVAFRVAVTALTTGSFSLLDASWNLVISVIGGFLVGLITALLNRLFLTILDNMDAADVTGALLLELVLPIPSYFVAEEIHVSGIIAVVVAGISLASRFKKITVFDAKLDSVSHTIWGTITFVLNGMVFFLLGTELPTLATPVLSSSTYDTLWMLLAIVLLTAIMFGIRFVMISAVFAQRAWRTKRSLKKIWKVATILTFSGVKGTVSIATILLLPVANMTALEHSLLTFTVAGVTLLSFLIGILILPRLATGPAHTTNHYMQIAILNDVVRELEKDLKQSANQGAVYATIDNYNQRLEDLILEQESNDVKEELANIRIMIMEIESEGLEYAYKKGKISELEYNLYQRYIKGLERRINRGFVSSLSYASAVFVLGLRRILHLAFTFKFRFEQEENRRGPQLTEENRDHMTELYLTNTEQVLEALSNLEGVYHSDLLSYLKRSRIREAEIIQSGAFVERVITHLNPDYVDEMLRGYFLERKIIIEYEQAGRISSRYAKQLRKEVNTLENYSLKETSNTLIYDMINLARRGA” it was “failed”. As for “MHMQLKGKTALVTGSTAGIGKAIATSLVAEGANVLINGRREENVNETIKEIRAQYPDAILQPVVADLGTEQGCQDVIEKYPKVDILINNLGIFEPVEYFDIPDEDWFKLFEVNIMSGVRLTRSYLKKMIERKEGRVIFIASEAAIMPSQEMAHYSATKTMQLSLSRSLAELTTGTNVTVNTIMPGSTLTEGVETMLNSLYPNEQLTIEEAEKRFMKENRPTSIIQRLIRPEEIAHLVTFLSSPLSSAINGSALRIDGGLVRSVF”, the protein production result is recorded as “not failed”. Turning to “MHSFPPLLLLLFWGVVSHSFPATLETQEQDVDLVQKYLEKYYNLKNDGRQVEKRRNSGPVVEKLKQMQEFFGLKVTGKPDAETLKVMKQPRCGVPDVAQFVLTEGNPRWEQTHLTYRIENYTPDLPRADVDHAIEKAFQLWSNVTPLTFTKVSEGQADIMISFVRGDHRDNSPFDGPGGNLAHAFQPGPGIGGDAHFDEDERWTNNFREYNLHRVAAHELGHSLGLSHSTDIGALMYPSYTFSGDVQLAQDDIDGIQAIYGRSQNPVQPIGPQTPKACDSKLTFDAITTIRGEVMFFKDRFYMRTNPFYPEVELNFISVFWPQLPNGLEAAYEFADRDEVRFFKGNKYWAVQGQNVLHGYPKDIYSSFGFPRTVKHIDAALSEENTGKTYFFVANKYWRYDEYKRSMDPGYPKMIAHDFPGIGHKVDAVFMKDGFFYFFHGTRQYKFDPKTKRILTLQKANSWFNCRKN”, the protein production entry is on record as “not failed”.
